Results as given in the DeepSol protein solubility set.

Assay: soluble on expression in E. coli; label from the status in PepcDB or PDB records

| Sequence | soluble on expression in E. coli |
| --- | --- |
| MSEEHIAVTRFREYLRVNTEQPNPNYAACRDFLFKYADELGIARRSIETAPGVFLVIMTIPGSQPELPSIMLYSHTDVVPTFREHWTHDPYSAFKDEDGNIFARGAQDMKCVGVQQMEALRNLFAQGIRQWKRTIHLVWGPDEEIFGINGMKGFAKTDEFKKLNLGFSLDEGMPSDDDVYKVFYAERVAWWVKVTFPGNPGHGSQFMENTAMEKLERFLASARKFRNEQKVVLESNPNLTLGDVTTLNVNIVNGGVQFNVIPEKFEAYVDMRLTPHEDFNKIREMLDQWAKNAGEGVTYEFSQYSDQKPISAHTRDNSFWAAFEDSLNQENCKFEKGIMVASTDSRFVRYEGVNSINFSPMINTPFLPHDHNEYLNEKVFLRGLEIYQTIINNLGNV | not soluble |
| AFTMEIPPTHYAASRAASVAENCINYQQGTPHKLFLVQTVQQASKEDIPGRGHKYHLKFSVEEIIQKQVTVNCTAEVLYPQMGQGSAPEVNFTFEGEIGKNPDEEDNTFYQSLMSLKRPLEAQDIPDNFGNVSPQMKPVQHLAWVACGYVMWQNSTEDTWYKMLKIQTVKQVQRNDDFIELDYTILLHDIASQEIIPWQMQVLWHPQYGTKVKHNSRLPKEGQAE | soluble |
| MDADDLRQLAINVSMDDIAASRDATKRLQQLFTPQQIVAMLKDAPSTHALRVLVGEMEAVGNPDVFHLIGGVLEDVFTQPSRESKAVLFAPAAQFLVEFIVRSAAAADTAVASSMSKALHRLIAIAGDSTEAAAFLGPCLDANFHNEQVLRLFDCDAVESAENKTVCGFLEQWTSLLPFMFEATLDAFENDPLLQANYTIASGVACRTVDVPSALRQRTMDILRAKDDSLCFAYVCRFWSIALLRHEANGQRDAAACVSTVMPAAEASERDERATEAIFDLLGSAASTQAGWDAVTRQLPCKTLQVRLSSTSPSLRLSTLNLMLCMLTSPHMNVSFFTKDLLLDAWQTRTSPDDMVRLALWRVANAALLQESLNRMLGAACASFLSSGAHEENVAVRSLKLTAAERLLRHSTLPENVKARLSQVVERGLYPAGSSGVSLIAKD | not soluble |
| MDAELLEIYNFLAKYPPFNELPEETLTKVTESVEISYYRQDTPIIHFGDHIQDLFVVRSGVVEVYRRKGELYNRLDEGDLFGQMGLLTNNKVRFPVKAIEDTLLYCIPVEVFQEIYDNFDSFADFVEVENSARLRQTISENKDANDLTTSKVKTLLTGDAPTINRGQTIQQAAQLMAQDNISSLLIVDPDFVLDEDDPQSPVLGIITDRDLCTRVLAEGLSPQDDVSTVMTTEVISLDHNAYIYEAMLTMLRYNVHHLPVVKNQLPIGIIETTDIVRYESQNSLLLVSSIFQQQSIEDLATVAEEVKSSFVRLVNEDANSHMVGSAMSVIGRSFKQRLLELAEEELGAPPIPYCFLALGSMGRDEQLLVTDQDNAIILDESYQEEKHGKYFEDLAKFVSDGLDACGYKYCTGDIMATNPMWRMTRSEWEECFADWIDDPNPKALLNASIFFDLDGVYGRLKWAEQLTSFIVRRARKNNRFLACLARNALNRTPPLGFFKDFVMEKDGQHKNSINLKRRGTAPLVDLIRVHALAVGSRAQNSFERLDDIIDAGILPKGRAQDLKDALEFISMVRIRHQATDVELGIEPDNNIEPENLSDFERRNLKDAFQILSNGQNFLKFRYQANKSFK | not soluble |
| MKHFSVKRLLGLSSVLLVTLGASMHAQSYLPKHESVTLKNGLQVVSVPLENKTGVIEVDVLYKVGSRNETMGKSGIAHMLEHLNFKSTKNLKAGEFDKIVKRFGGVSNASTSFDITRYFIKTSQANLDKSLELFAETMGSLNLKEDEFLPERQVVAEERRWRTDNSPIGMLYFRFFNTAYVYHPYHWTPIGFMDDIQNWTLKDIKKFHSLYYQPKNAIVLVVGDVNSQKVFELSKKHFESLKNLDEKAIPTPYMKEPKQDGARTAVVHKDGVHLEWVALGYKVPAFKHKDQVALDALSRLLGEGKSSWLQSELVDKKRLASQAFSHNMQLQDESVFLFIAGGNPNVKAEALQKEIVALLEKLKKGEITQAELDKLKINQKADFISNLESSSDVAGLFADYLVQNDIQGLTDYQRQFLDLKVSDLVRVANEYFKDTQSTTVFLKP | not soluble |
| MRCPWRKTRRHSDNGWYGPRNQIRPDDHRLHRKVRKSRGDSRRAGNGSPRARCFEGAQRRGKSDGLSECGRMKNLLEMVELVRGKRMKIAVGAAEDEEVLKAVARAKEEEIVDPVLFGKRKDIETLVERMNLELEAEIVHVEDPFEAVRKAVESVSRNETQILMKGKIKTSDLFSVFLKKEYGLRTGRTLSAVSVHEVPGYHKILIISDGGLVISPNLQQRMDIVENSILVARALGIEKPKIALLGTGDLKSPLTLEIAALSKIFQQRNDCIVDGPLTLDLAISEELASKAGNSPVAGDADILIVPSIETGNILSKSLVYMARGRAAIVVVGGRVPVVLTSRADDEETRFLSIALSVLVAQKKG | soluble |
| MAEYKFYYFNGRGLGDVSRQLFALSGTKYEDIRIEHADWPAQKPKMPFGQMPVLELSSGLQIPQSMAIARYLAKKFGYAGKTDEEAALADALIDQFKDFYAEIKPYYYAKIGVLQNDTEEEKKKTLIPARDKFLTIIGKFLKLSISGFLFSGGLTYADLMICDNMRTLIAWWPEYLNEYPDIKAWYQKVDGIPEIRKHLESSPDKGF | soluble |
| MSSVGAGFRLARAGWVLVREGVIAALPGEELSGLPKFGWQLARLFTRRRALAYQRSDRLAKAVVRLGPSYVKLGQFLATRPDVVGNDMALDLAMLQDKMHTFPKAEAVAAIEASLGRKVRDLYAEFGLEHHHHHH | not soluble |
| MISLNNRLTTVSRFLKQGTIADIGSDHAYLPIYAIQNHLCECGIAGEVIQGPFQAAVKNVAANHLVERIDVRLGDGLSVIHPEDVIDNITICGMGGPLIAKILKDGQDKLSQHPRLILQSNIQTENLRQTLQQLNYEIIDEIIMEEKGHIYEIVVA | not soluble |
| MTTPGSSLPPALVDRTALAARRARMRDAALFLHHAALDEVQDRLSLVNRTFTDMAVVTPAPALWAGSFPMARFVAEDEMLDLAPQSCDLVVHAMALHWANDAVGQLIQCRRALRPDGLLLAICFGGQTLHQLRAALAEAEAQVSGGISPRVAPMAEIRDLGALLQRAGLALPVADSLTLTAEYRDLPHLMRDLRQMGEANALSARLRHPTQRAVFERAEEIYAAHFATPDNRLPATFELICLTGWAPDDSQPKPLRPGSASARLAAALGTSETPLPD | not soluble |
| MAQEKMDLDFEADTSEGATLRRSNSAPLIHVLSDLSQVFEPYPLRTGRTSTAIMSHHSLEEGLDMMNRETTNEREAQAGMQISQSWDESLSLSGSDFDKPEKLYSPKRIDFTPVSPAPSPTRGFGKQCLSPSLQMFVSSSGMPPSPVLNPRHFSRRSQSPVKCIRPSVLGPLKRKGEMEMESQPKRPFQGTTSMLSTNPAQLSDFSSCSDILDGSSISSGLSSDSLATGSAPAESPVACSNSCSPFILMDDLSPK | not soluble |
| GMSDPRTQPLEIRPLMISRVMEVDWADGHTSRLTFEHLRVECPCAECKGHTPDQAQIVTGKEHVSVVEVVPVGHYAVQLHFSDGHNTGIFTWEYLRRLDAE | soluble |
| MGSDKIHHHHHHMNAQIQIIKTAQGHMALCQDTPKDIAPAWFAVDFWRAKDAVVGSSKGRYTTWFVAFEHSHWVLRHYWRGGLMEKFSKDAYVYTGLENTRAMAELRLLNILYHEDFAVPKPIAANIVRDGLFYRADIIIERVEGAEDLVAKLSKGLMNTEQWQALGATIAQFHQRGVYHADLNAKNILFQPAQTAPITPERFYLIDFDRGELKTPSPQWQQSNLDRLLRSFNKEQGKLPSLAFTADNWSSLMMGYQAAMQSA | not soluble |
| MMGLLSTIRGKKEPVVGNGIGSAQVGPLNAKTKKLVIQEWPRVLAQCPELFTEIWHKSATRSTSIKLAFGIAENESPMQNAAFLGLSSTIQAFFYKLIITYELNDDQVREACEQLGARHVDFISRGFNSHFWDIFLVCMAEKIDETLSAYIPDEDKRNEMILAWQRVINSIVHQMRNGYSDRRKQQLGGTKGGSNNGF | not soluble |
| MSLLKNVEVFWQNFLDKHELDMLMPDVWMFGDGSSEMGNRLGQLVVSGRKTATCSSLDIYKMEEEQLPKAGQYDIILDGQSQPLAIIRTTKVEIMPMNKVSESFAQAEGEGDLTLDYWYEEHARFFKEELAPYQLQFYPDMLLVCQSFEVVDLYTEKEEGGSHHHHHH | soluble |
| MRGSHHHHHHTDPALRAQDAAPRLTFTLRDEERLMMKIGVFVPIGNNGWLISTHAPQYMPTFELNKAIVQKAEHYHFDFALSMIKLRGFGGKTEFWDHNLESFTLMAGLAAVTSRIQIYATAATLTLPPAIVARMAATIDSISGGRFGVNLVTGWQKPEYEQMGIWPGDDYFSRRYDYLTEYVQVLRDLWGTGKSDFKGDFFTMNDCRVSPQPSVPMKVICAGQSDAGMAFSARYADFNFCFGKGVNTPTAFAPTAARMKQAAEQTGRDVGSYVLFMVIADETDDAARAKWEHYKAGADEEALSWLTEQSQKDTRSGTDTNVRQMADPTSAVNINMGTLVGSYASVARMLDEVASVPGAEGVLLTFDDFLSGIETFGERIQPLMQCRAHLPALTQEVAGLCGR | soluble |
| MGSDKIHHHHHHMYTDADRSREVVPEKDGHDKKWRDEFGRDYGRIIHSASFRRQQGKTQVFPSRESDFFRNRLTHSLEVAQIAQGIAERINYDYDKDLGGKIDPRLCATAGLVHDIGHPPFGHNGESALDKAMQRYGGFEGNAQTLRILTRLEKKLRYAEPLAGDDRAGLNLCHRTIAATLKYDNEIPAIRKAADGFVKGYYGSEKIIVDRVKASVLNGYVLGAEEKFCTIECSIMDLADDIAYSVYDLEDCFKVGFLSPAEMLASDDALLSAVAKRASKPMKRTVTINEIQAVFMEIFSEIIEQPAEDADSPLDGIVIEDDIAQQAKRDESLLTFAEAYRTSKVMSEDGYKRTEFSSELVHQFISGVELKAHKECPSLSQIYLPEKLMLRKEVLKQYTFVAAIYAPRVKLGEYRGYDLVTDIFKALMGDRGDLLMPADVRGRIRKAPNVSVKAREVCDFVAGMTDRYAMEFWARLNSDAAESMFKPI | not soluble |
| GPGSMVTTDINRDPVKRAMEDGTWRPGQKTAPQQQPQSLGVQCVAAPPQQAPCVPPLLVQYVPAPQAQYTPQPQLMQYVPQQPPQGYYQPRPPLPQPSYYPPGPPPPLQSGYYQQPPVPIQQVYYTQPPSQCYAPQPQYQY | not soluble |
| MNINLETAEQHAVQAYSDKKIQINSIIYESSLIVSKKEIITDFVIKDIQDINNSYIDLLLRSKPELIIIGHLQTGKTLPATLISQLSQKRIGIECMSIGAACRTYNVLLSEHRAVVAGFIFLEHHHHHH | not soluble |
| MKPTTISLLQKYKQEKKRFATITAYDYSFAKLFADEGLNVMLVGDSLGMTVQGHDSTLPVTVADIAYHTAAVRRGAPNCLLLADLPFMAYATPEQAFENAATVMRAGANMVKIEGGEWLVETVQMLTERAVPVCGHLGLTPQSVNIFGGYKVQGRGDEAGDQLLSDALALEAAGAQLLVLECVPVELAKRITEALAIPVIGIGAGNVTDGQILVMHDAFGITGGHIPKFAKNFLAETGDIRAAVRQYMAEVESGVYPGEEHSFH | soluble |
| MALSANSDAVTYAKAANTRTAAETGDRIEWVKLSLAFLPLATPVSDAKVLTGRQKPLTEVAIIIAEIRSRDGFEGVGFSYSKRAGGQGIYAHAKEIADNLLGEDPNDIDKIYTKLLWAGASVGRSGMAVQAISPIDIALWDMKAKRAGLPLAKLLGAHRDSVQCYNTSGGFLHTPLDQVLKNVVISRENGIGGIKLAVGQPNCAEDIRRLTAVREALGDEFPLMVDANQQWDRETAIRMGRKMEQFNLIWIEEPLDAYDIEGHAQLAAALDTPIATGEMLTSFREHEQLILGNASDFVQPDAPRVGGISPFLKIMDLAAKHGRKLAPHFAMEVHLHLSAAYPLEPWLEHFEWLNPLFNEQLELRDGRMWISDRHGLGFTLSEQARRWTQLTCEFGKRP | soluble |
| MDNVDFSKDIRDYSGLELAFLGDAIWELEIRKYYLQFGYNIPTLNKYVKAKVNAKYQSLIYKKIINDLDEEFKVIGKRAKNSNIKTFPRSCTVMEYKEATALEAIIGAMYLLKKEEEIKKIINIVIKGELEHHHHHH | soluble |
